Laboratory results published in patent US7642244 (Hoffmann-La Roche, dated 2010).
Starred links: 1 amine or outer side, 2 acyl side, 3 side chain; linkers in the order of their positions; H or OH if unused. Non-standard residues stand in square brackets, D forms with d. Primed or numbered codes have the meaning given here. *: point of attachment. Pqa = 4-oxo-6-(1-piperazinyl)-3(4H)-quinazoline-acetic acid, O=C(Cn1cnc2ccc(N3CCN([*:1])CC3)cc2c1=O)[*:2]; Adamantane1carbonyl = O=C(C12CC3CC(CC(C3)C1)C2)*; PEG30,000 SSA″ = PEG-CH2CH2NHCOCH2CH2CO-; PEG30,000 SPA = (PEG-30,000)CH2CH2CO; NMeR = CN[C@@H](CCCNC(=N)N)C(=O)O

T1: human NPY2 receptor (human, UniProt P49146 1-381)
T1 sequence (looked up): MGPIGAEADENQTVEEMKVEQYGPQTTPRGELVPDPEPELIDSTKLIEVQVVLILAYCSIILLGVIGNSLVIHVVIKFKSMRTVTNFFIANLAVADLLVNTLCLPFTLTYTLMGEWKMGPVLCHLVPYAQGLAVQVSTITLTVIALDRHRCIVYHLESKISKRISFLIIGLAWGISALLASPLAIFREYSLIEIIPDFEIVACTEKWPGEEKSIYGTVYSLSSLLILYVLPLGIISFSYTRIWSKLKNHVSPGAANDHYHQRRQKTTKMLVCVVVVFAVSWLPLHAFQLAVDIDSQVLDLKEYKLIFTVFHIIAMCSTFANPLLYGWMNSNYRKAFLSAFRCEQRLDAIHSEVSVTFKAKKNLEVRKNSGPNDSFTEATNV

T2: Y5R
T2 sequence (Q15761 whole entry, species assumed, looked up): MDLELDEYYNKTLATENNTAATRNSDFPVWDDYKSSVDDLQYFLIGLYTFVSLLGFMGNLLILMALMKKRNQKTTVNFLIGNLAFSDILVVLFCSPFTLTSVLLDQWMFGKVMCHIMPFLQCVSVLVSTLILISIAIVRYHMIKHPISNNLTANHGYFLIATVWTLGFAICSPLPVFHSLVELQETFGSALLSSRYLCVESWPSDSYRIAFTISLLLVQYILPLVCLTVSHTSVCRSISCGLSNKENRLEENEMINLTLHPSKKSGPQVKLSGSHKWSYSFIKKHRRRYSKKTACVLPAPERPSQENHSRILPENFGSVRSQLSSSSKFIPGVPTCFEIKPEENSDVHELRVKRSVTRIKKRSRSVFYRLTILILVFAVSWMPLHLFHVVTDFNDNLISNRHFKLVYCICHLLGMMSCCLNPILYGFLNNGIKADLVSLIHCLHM

B1: Cyclohexylacetyl-Ile-Lys-Pqa-Arg-His-Tyr-Leu-Asn-Trp-Val-Thr-Arg-Gln-(NMe)Arg-Tyr-NH2 (peptide)
peptide: IKXRHYLNWVTRQRY
HELM: PEPTIDE1{[O=C(CC1CCCCC1)[*:2]].I.K.[O=C(Cn1cnc2ccc(N3CCN([*:1])CC3)cc2c1=O)[*:2]].R.H.Y.L.N.W.V.T.R.Q.[meR].Y.[am]}$$$$V2.0
SMILES: CC[C@H](C)[C@H](NC(=O)CC1CCCCC1)C(=O)N[C@@H](CCCCN)C(=O)N1CCN(c2ccc3ncn(CC(=O)N[C@@H](CCCNC(=N)N)C(=O)N[C@@H](Cc4c[nH]cn4)C(=O)N[C@@H](Cc4ccc(O)cc4)C(=O)N[C@@H](CC(C)C)C(=O)N[C@@H](CC(N)=O)C(=O)N[C@@H](Cc4c[nH]c5ccccc45)C(=O)N[C@H](C(=O)N[C@H](C(=O)N[C@@H](CCCNC(=N)N)C(=O)N[C@@H](CCC(N)=O)C(=O)N(C)[C@@H](CCCNC(=N)N)C(=O)N[C@@H](Cc4ccc(O)cc4)C(N)=O)[C@@H](C)O)C(C)C)c(=O)c3c2)CC1
B2: Pentoyl-Ile-Lys-Pqa-Arg-His-Tyr-Leu-Asn-Trp-Val-Thr-Arg-Gln-(NMe)Arg-Tyr-NH2 (peptide)
peptide: IKXRHYLNWVTRQRY
HELM: PEPTIDE1{[CCCCC(=O)[*:2]].I.K.[O=C(Cn1cnc2ccc(N3CCN([*:1])CC3)cc2c1=O)[*:2]].R.H.Y.L.N.W.V.T.R.Q.[meR].Y.[am]}$$$$V2.0
SMILES: CCCCC(=O)N[C@H](C(=O)N[C@@H](CCCCN)C(=O)N1CCN(c2ccc3ncn(CC(=O)N[C@@H](CCCNC(=N)N)C(=O)N[C@@H](Cc4c[nH]cn4)C(=O)N[C@@H](Cc4ccc(O)cc4)C(=O)N[C@@H](CC(C)C)C(=O)N[C@@H](CC(N)=O)C(=O)N[C@@H](Cc4c[nH]c5ccccc45)C(=O)N[C@H](C(=O)N[C@H](C(=O)N[C@@H](CCCNC(=N)N)C(=O)N[C@@H](CCC(N)=O)C(=O)N(C)[C@@H](CCCNC(=N)N)C(=O)N[C@@H](Cc4ccc(O)cc4)C(N)=O)[C@@H](C)O)C(C)C)c(=O)c3c2)CC1)[C@@H](C)CC
B3: Benzoyl-Ile-Lys-Pqa-Arg-His-Tyr-Leu-Asn-Trp-Val-Thr-Arg-Gln-(NMe)Arg-Tyr-NH2 (peptide)
peptide: IKXRHYLNWVTRQRY
HELM: PEPTIDE1{[O=C(c1ccccc1)[*:2]].I.K.[O=C(Cn1cnc2ccc(N3CCN([*:1])CC3)cc2c1=O)[*:2]].R.H.Y.L.N.W.V.T.R.Q.[meR].Y.[am]}$$$$V2.0
SMILES: CC[C@H](C)[C@H](NC(=O)c1ccccc1)C(=O)N[C@@H](CCCCN)C(=O)N1CCN(c2ccc3ncn(CC(=O)N[C@@H](CCCNC(=N)N)C(=O)N[C@@H](Cc4c[nH]cn4)C(=O)N[C@@H](Cc4ccc(O)cc4)C(=O)N[C@@H](CC(C)C)C(=O)N[C@@H](CC(N)=O)C(=O)N[C@@H](Cc4c[nH]c5ccccc45)C(=O)N[C@H](C(=O)N[C@H](C(=O)N[C@@H](CCCNC(=N)N)C(=O)N[C@@H](CCC(N)=O)C(=O)N(C)[C@@H](CCCNC(=N)N)C(=O)N[C@@H](Cc4ccc(O)cc4)C(N)=O)[C@@H](C)O)C(C)C)c(=O)c3c2)CC1
B4: Trimethylacetyl-Ile-Lys-Pqa-Arg-His-Tyr-Leu-Asn-Trp-Val-Thr-Arg-Gln-(NMe)Arg-Tyr-NH2 (peptide)
peptide: IKXRHYLNWVTRQRY
HELM: PEPTIDE1{[CC(C)(C)C(=O)[*:2]].I.K.[O=C(Cn1cnc2ccc(N3CCN([*:1])CC3)cc2c1=O)[*:2]].R.H.Y.L.N.W.V.T.R.Q.[meR].Y.[am]}$$$$V2.0
SMILES: CC[C@H](C)[C@H](NC(=O)C(C)(C)C)C(=O)N[C@@H](CCCCN)C(=O)N1CCN(c2ccc3ncn(CC(=O)N[C@@H](CCCNC(=N)N)C(=O)N[C@@H](Cc4c[nH]cn4)C(=O)N[C@@H](Cc4ccc(O)cc4)C(=O)N[C@@H](CC(C)C)C(=O)N[C@@H](CC(N)=O)C(=O)N[C@@H](Cc4c[nH]c5ccccc45)C(=O)N[C@H](C(=O)N[C@H](C(=O)N[C@@H](CCCNC(=N)N)C(=O)N[C@@H](CCC(N)=O)C(=O)N(C)[C@@H](CCCNC(=N)N)C(=O)N[C@@H](Cc4ccc(O)cc4)C(N)=O)[C@@H](C)O)C(C)C)c(=O)c3c2)CC1
B5: H-Ile-Lys-Pqa-Arg-His-Tyr-Leu-Asn-Leu-Val-Thr-Arg-Gln-NMe)Arg-Trp-NH2 (peptide)
peptide: IKXRHYLNLVTRQRW
HELM: PEPTIDE1{I.K.[O=C(Cn1cnc2ccc(N3CCN([*:1])CC3)cc2c1=O)[*:2]].R.H.Y.L.N.L.V.T.R.Q.[meR].W.[am]}$$$$V2.0
SMILES: CC[C@H](C)[C@H](N)C(=O)N[C@@H](CCCCN)C(=O)N1CCN(c2ccc3ncn(CC(=O)N[C@@H](CCCNC(=N)N)C(=O)N[C@@H](Cc4c[nH]cn4)C(=O)N[C@@H](Cc4ccc(O)cc4)C(=O)N[C@@H](CC(C)C)C(=O)N[C@@H](CC(N)=O)C(=O)N[C@@H](CC(C)C)C(=O)N[C@H](C(=O)N[C@H](C(=O)N[C@@H](CCCNC(=N)N)C(=O)N[C@@H](CCC(N)=O)C(=O)N(C)[C@@H](CCCNC(=N)N)C(=O)N[C@@H](Cc4c[nH]c5ccccc45)C(N)=O)[C@@H](C)O)C(C)C)c(=O)c3c2)CC1
B6: Ac-Ile-Lys-Pqa-Arg-His-Tyr-Leu-Asn-Trp-Val-Thr-Arg-Gln-(NMe)Arg-2,6-F2-Tyr-NH2 (peptide)
peptide: IKXRHYLNWVTRQRY
HELM: PEPTIDE1{[ac].I.K.[O=C(Cn1cnc2ccc(N3CCN([*:1])CC3)cc2c1=O)[*:2]].R.H.Y.L.N.W.V.T.R.Q.[meR].[O=C([C@H](Cc1c(F)cc(O)cc1F)N[*:1])[*:2]].[am]}$$$$V2.0
SMILES: CC[C@H](C)[C@H](NC(C)=O)C(=O)N[C@@H](CCCCN)C(=O)N1CCN(c2ccc3ncn(CC(=O)N[C@@H](CCCNC(=N)N)C(=O)N[C@@H](Cc4c[nH]cn4)C(=O)N[C@@H](Cc4ccc(O)cc4)C(=O)N[C@@H](CC(C)C)C(=O)N[C@@H](CC(N)=O)C(=O)N[C@@H](Cc4c[nH]c5ccccc45)C(=O)N[C@H](C(=O)N[C@H](C(=O)N[C@@H](CCCNC(=N)N)C(=O)N[C@@H](CCC(N)=O)C(=O)N(C)[C@@H](CCCNC(=N)N)C(=O)N[C@@H](Cc4c(F)cc(O)cc4F)C(N)=O)[C@@H](C)O)C(C)C)c(=O)c3c2)CC1

Key:
Assay in all cases: cell-based or functional assay
[1] = biological target: T1, human NPY2 receptor
[2] = biological target: T2, Y5R
[3] = biological target: Y1R
Chain of Y1R (P25929 whole entry): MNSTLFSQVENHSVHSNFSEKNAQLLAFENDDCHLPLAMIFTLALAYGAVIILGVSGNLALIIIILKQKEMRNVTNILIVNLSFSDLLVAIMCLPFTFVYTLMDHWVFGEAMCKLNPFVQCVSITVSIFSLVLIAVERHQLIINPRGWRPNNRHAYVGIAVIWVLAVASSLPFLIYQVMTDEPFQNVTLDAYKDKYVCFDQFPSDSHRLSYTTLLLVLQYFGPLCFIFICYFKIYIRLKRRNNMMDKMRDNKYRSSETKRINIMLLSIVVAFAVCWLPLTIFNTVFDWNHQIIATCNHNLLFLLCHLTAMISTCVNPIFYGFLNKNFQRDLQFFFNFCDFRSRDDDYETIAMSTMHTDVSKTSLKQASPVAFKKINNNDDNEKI

[4] = biological target: Y4R

Row | Binder | Y2R EC50 (nM) FLIPR [1] | Y2R EC50 (nM) cAMP [1] | Y5R EC50 (nM) FLIPR [2] | Y1R EC50 (nM) FLIPR [3] | Y4R EC50 (nM) FLIPR [4]
1 | Adamantane1carbonyl-IK[Pqa]RHYLNWVTRQ[NMeR]Y-NH2 [Adamantoyl-Ile-Lys-Pqa-Arg-His-Tyr-Leu-Asn-Trp-Val-Thr-Arg-Gln-(NMe)Arg-Tyr-NH2] | 2.33 nM | 2.9 nM | > 5000 nM | > 5000 nM | > 5000 nM
2 | B1 | 1.67 nM | 1.37 nM | > 5000 nM | > 5000 nM | > 5000 nM
3 | Ac-IK(PEG30,000 SPA)[Pqa]RHYLNWVTRQ[NMeR]Y-NH2 [Ac-Ile(PEG-30,000)CH2CH2CO(ε)Lys-Pqa-Arg-His-Tyr-Leu-Asn-Trp-Val-Thr-Arg-Gln-(NMe)Arg-Tyr-NH2] | 549 nM | 24.4 nM | > 5000 nM | > 5000 nM | > 5000 nM
4 | Ac-IK(PEG30,000 SSA″)[Pqa]RHYLNWVTRQ[NMeR]Y-NH2 | 1080 nM | 20.7 nM | > 5000 nM | > 5000 nM | > 5000 nM
5 | B2 | 0.873 nM | 0.51 nM | > 5000 nM | > 5000 nM | > 5000 nM
6 | B3 | 0.79 nM | 0.66 nM | > 5000 nM | > 5000 nM | > 5000 nM
7 | B4 | 1.1 nM | 0.26 nM | > 5000 nM | > 5000 nM | > 5000 nM
8 | B5 | 0.454 nM | 1.06 nM | > 5000 nM | > 5000 nM | > 5000 nM
9 | B6 | 1.44 nM | 0.07 nM | 5810 nM | > 5000 nM | > 5000 nM
